Measured values taken from patent EP4471049A1 (Zealand Pharma A/S, priority 2023, dated 2024).
*1 amine or outer side, *2 acyl side, *3 side chain or, on linkers, in order; H or OH if unused. Where a SMILES comes first, the peptide text is derived from it. Bridges are numbered along the chain shown (N, C = ends). Where no end group is shown, it is not given here. [ ]: non-standard residue; d: D form. 4‑Aminomethyl‑phenylacetyl = 4-aminomethyl-phenylacetyl unit, its amine closes the lactam, O=C(Cc1ccc(CN[*:1])cc1)[*:2]; 2Nal = N[C@@H](Cc1ccc2ccccc2c1)C(=O)O; AEF = NCCOc1ccc(C[C@H](N)C(=O)O)cc1; 3Pal = N[C@@H](Cc1cccnc1)C(=O)O; αMeL = CC(C)C[C@](C)(N)C(=O)O; CH2COCH2 = O=C(C[*:1])C[*:2]; 3Amb = NCc1cccc(C(=O)O)c1; NMeS = CN[C@@H](CO)C(=O)O; Dab = NCC[C@H](N)C(=O)O

T1: Nluc-IL23R fusion protein (human, UniProt Q5VWK5 22-629)
T1 construct: range 22-629; expressed with a secretion signal in HEK293 cells; used as crude membrane preparation; also called hIL-23R; human IL-23R; not shown: Nanoluc protein from the expression plasmid N1371 (Promega), N-terminal of IL-23R
T1 sequence (looked up): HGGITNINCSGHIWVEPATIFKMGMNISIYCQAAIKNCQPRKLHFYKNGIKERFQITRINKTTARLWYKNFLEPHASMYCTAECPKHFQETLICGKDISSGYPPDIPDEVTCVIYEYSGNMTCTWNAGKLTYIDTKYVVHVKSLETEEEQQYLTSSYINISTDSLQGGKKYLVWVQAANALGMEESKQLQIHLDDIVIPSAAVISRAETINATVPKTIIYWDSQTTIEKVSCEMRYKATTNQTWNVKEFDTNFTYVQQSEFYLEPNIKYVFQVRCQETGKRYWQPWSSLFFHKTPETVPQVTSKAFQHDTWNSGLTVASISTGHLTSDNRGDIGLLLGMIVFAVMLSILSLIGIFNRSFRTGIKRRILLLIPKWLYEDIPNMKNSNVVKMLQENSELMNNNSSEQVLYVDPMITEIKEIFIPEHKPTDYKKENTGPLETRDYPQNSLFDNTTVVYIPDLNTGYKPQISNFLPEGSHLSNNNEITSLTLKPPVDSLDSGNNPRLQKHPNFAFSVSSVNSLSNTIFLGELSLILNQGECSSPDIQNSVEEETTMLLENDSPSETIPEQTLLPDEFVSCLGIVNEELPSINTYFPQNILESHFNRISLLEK

T2: human IL-23R endogenously expressed on DB cells (human, UniProt Q5VWK5 24-629)
T2 sequence (looked up): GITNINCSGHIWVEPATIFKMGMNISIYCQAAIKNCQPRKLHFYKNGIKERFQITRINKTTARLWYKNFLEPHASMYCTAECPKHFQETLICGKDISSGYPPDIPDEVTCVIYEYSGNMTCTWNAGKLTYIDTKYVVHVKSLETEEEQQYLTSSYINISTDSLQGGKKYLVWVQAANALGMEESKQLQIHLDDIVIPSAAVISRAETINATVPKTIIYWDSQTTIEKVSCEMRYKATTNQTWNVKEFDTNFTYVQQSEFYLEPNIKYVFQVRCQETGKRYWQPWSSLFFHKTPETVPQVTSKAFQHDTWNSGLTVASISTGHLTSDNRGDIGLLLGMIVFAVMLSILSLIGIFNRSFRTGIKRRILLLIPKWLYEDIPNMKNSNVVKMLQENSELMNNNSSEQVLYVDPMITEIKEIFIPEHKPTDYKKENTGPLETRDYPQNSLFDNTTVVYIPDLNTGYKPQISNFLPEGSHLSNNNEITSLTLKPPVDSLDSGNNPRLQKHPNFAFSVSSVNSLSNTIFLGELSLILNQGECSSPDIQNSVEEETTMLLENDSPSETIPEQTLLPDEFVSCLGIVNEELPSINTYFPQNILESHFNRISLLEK

B1: Compound 22 (peptide)
peptide: [4‑Aminomethyl‑phenylacetyl]SEWA[Dab][AEF][2Nal][αMeL]E[Dab][3Pal]-NHMe
modifications: lactam N-10, 3-6
SMILES: CNC(=O)[C@H](Cc1cccnc1)NC(=O)[C@H](CCN)NC(=O)[C@@H]1CCC(=O)NCc2ccc(cc2)CC(=O)N[C@@H](CO)C(=O)N[C@H]2CCC(=O)NCC[C@H](NC(=O)[C@H](C)NC(=O)[C@H](Cc3c[nH]c4ccccc34)NC2=O)C(=O)N[C@@H](Cc2ccc(OCCN)cc2)C(=O)N[C@@H](Cc2ccc3ccccc3c2)C(=O)N[C@@](C)(CC(C)C)C(=O)N1
B2: Compound 21 (peptide)
peptide: [4‑Aminomethyl‑phenylacetyl]FEWQ[Dab][AEF][2Nal][αMeL]E[Dab][3Pal]-NHMe
modifications: lactam N-10, 3-6
SMILES: CNC(=O)[C@H](Cc1cccnc1)NC(=O)[C@H](CCN)NC(=O)[C@@H]1CCC(=O)NCc2ccc(cc2)CC(=O)N[C@@H](Cc2ccccc2)C(=O)N[C@H]2CCC(=O)NCC[C@H](NC(=O)[C@H](CCC(N)=O)NC(=O)[C@H](Cc3c[nH]c4ccccc34)NC2=O)C(=O)N[C@@H](Cc2ccc(OCCN)cc2)C(=O)N[C@@H](Cc2ccc3ccccc3c2)C(=O)N[C@@](C)(CC(C)C)C(=O)N1
B3: Compound 23 (peptide)
peptide: [4‑Aminomethyl‑phenylacetyl]SEWF[Dab][AEF][2Nal][αMeL]E[Dab][3Pal]-NHMe
modifications: lactam N-10, 3-6
SMILES: CNC(=O)[C@H](Cc1cccnc1)NC(=O)[C@H](CCN)NC(=O)[C@@H]1CCC(=O)NCc2ccc(cc2)CC(=O)N[C@@H](CO)C(=O)N[C@H]2CCC(=O)NCC[C@H](NC(=O)[C@H](Cc3ccccc3)NC(=O)[C@H](Cc3c[nH]c4ccccc34)NC2=O)C(=O)N[C@@H](Cc2ccc(OCCN)cc2)C(=O)N[C@@H](Cc2ccc3ccccc3c2)C(=O)N[C@@](C)(CC(C)C)C(=O)N1
B4: Ref 78 (peptide)
peptide: [3Amb]SCWQC[AEF][2Nal][αMeL]ER[3Pal]-NH2
modifications: lactam N-10; bridge 3-6; not fully specified (bridges); printed as [(3-Aminomethyl)benzoyl](1c)*SC(2a)WQC(2a)[Y(2-aminoethoxy)][2-Nal][2-Me-Leu]E(1c)R[3-(3-Pyridyl)-Ala]-[NH2]
B5: Ref 155 (peptide)
peptide: Ac-KTCWQC[AEF][2Nal][αMeL]E[Dab][3Pal]-NH2
modifications: lactam 1-10; bridge 3-6; not fully specified (bridges); printed as [Ac]-K(1c)TC(2a)WQC(2a)[Y(2-aminoethoxy)][2-Nal][2-Me-Leu]E(1c)[Dab][3-(3-Pyridyl)-Ala]-[NH2]
B6: Ref 82 (peptide)
peptide: [4‑Aminomethyl‑phenylacetyl]SCWQC[AEF][2Nal][αMeL]E[Dab]-NH2
modifications: lactam N-10; bridge 3-6; not fully specified (bridges); printed as [4-Aminomethyl-phenylacetyl](1c)*SC(2a)WQC(2a)[Y(2-aminoethoxy)][2-Nal][2-Me-Leu]E(1c)[Dab]-[NH2]
B7: Ref 120 (peptide)
peptide: [4‑Aminomethyl‑phenylacetyl]SCWQC[AEF][2Nal][αMeL]E[Dab][3Pal]-NH2
modifications: lactam N-10; bridge 3-6; not fully specified (bridges); printed as [4-Aminomethyl-phenylacetyl](1c)*SC(2a)WQC(2a)[Y(2-aminoethoxy)][2-Nal][2-Me-Leu]E(1c)[Dab][3-(3-Pyridyl)-Ala]-[NH2]

Key:
[1] = Peptide stability in simulated gastric fluid (SGF); assay type: in vitro ADME; details: 37 °C, pH 1.2, porcine pepsin 3.2 g/L, 10 µM
Protocol: SGF was prepared by dissolving sodium chloride (0.2 g) in 50 mL of water. A volume of 0.7 mL of 10 M HCl was added to adjust the pH of the solution to 1.2 and the volume made up to 100 mL with water. […] SIF was prepared by dissolving monobasic potassium phosphate (0.68 g) in 50 mL of water and adjusting the pH to 6.8 with 1 M NaOH. The volume was subsequently made up to 100 mL with water. 200 mg porcine pancreatin (P1625, Sigma Aldrich) was gently dissolved into 20 mL preheated (37 °C) solution (10 g/L) immediately prior to the incubation.
The incubation was performed at 37 °C with gentle shaking. […] After the last timepoint, the sampling plate was mixed for 10 min on a shaking table and centrifuged 10 min at 2200 g. 70 µL resulting supernatant was diluted with 150 µL water, mixed and centrifugated before analysis by liquid chromatography high resolution mass spectrometry. […] Percent remaining at each timepoint was calculated relative to timepoint zero based on absolute peak areas.
Compounds with a SGF stability (after 4 h) above 70% are considered highly SGF stable. […] Table 3-4: SGF data

[2] = molecular target: T1, Nluc-IL23R fusion protein; assay: BRET competition vs TAMRA-labelled peptide, Nluc-IL23R membranes
[3] = molecular target: T2, human IL-23R endogenously expressed on …; assay: cell-based or functional assay

Molecule	SGF (% remaining 1 h) [1] [%]	SGF (% remaining 4 h) [1] [%]	% displacement (hIL-23R binding) [2] [%]	IC50 [2] [nM]	hIL-23 (pSTAT3) antagonist % inhibition [3] [%]	hIL-23 (pSTAT3) antagonist IC50 [3]
CC(C)C[C@@H]1NC(=O)[C@H](Cc2c[nH]c3ccccc23)NC(=O)[C@H](Cc2c[nH]c3ccccc23)NC(=O)[C@@H]2CSCC(=O)CSC[C@H](NC(=O)[C@H](CO)NC(=O)[C@@H](NC(=O)[C@@H](N)CC(=O)O)CCC(=O)NCCCC[C@@H](C(=O)N[C@@H](CCCNC(=N)N)C(N)=O)NC1=O)C(=O)N[C@@H](Cc1c[nH]c3ccccc13)C(=O)N[C@@H](CCC(N)=O)C(=O)N2 [Ref 4, H-DE(1c)SC(2a)WQC(2a)WWLK(1c)R-[NH2], reference compound] (HELM PEPTIDE1{D.E.S.C.W.Q.C.W.W.L.K.R.[am]}|CHEM1{[O=C(C[*:1])C[*:2]]}$PEPTIDE1,PEPTIDE1,2:R3-11:R3|PEPTIDE1,CHEM1,4:R3-1:R1|PEPTIDE1,CHEM1,7:R3-1:R2$$$V2.0)	1	0				
CC(=O)N[C@@H](CC(=O)O)C(=O)N[C@H]1CCC(=O)NCCCC[C@@H](C(=O)N[C@@H](CCCNC(=N)N)C(N)=O)NC(=O)[C@H](CC(C)C)NC(=O)[C@H](Cc2ccc3ccccc3c2)NC(=O)[C@H](Cc2c[nH]c3ccccc23)NC(=O)[C@@H]2CSCC(=O)CSC[C@H](NC(=O)[C@H](CO)NC1=O)C(=O)N[C@@H](Cc1c[nH]c3ccccc13)C(=O)N[C@@H](CCC(N)=O)C(=O)N2 [Ref 17, [Ac]-DE(1c)SC(2a)WQC(2a)W[2-Nal]LK(1c)R-[NH2], reference compound]	0	0				
CC(C)C[C@@H]1NC(=O)[C@H](Cc2ccc3ccccc3c2)NC(=O)[C@H](Cc2c[nH]c3ccccc23)NC(=O)[C@@H]2CSCC(=O)CSC[C@H](NC(=O)[C@H](CO)NC(=O)c3cccc(c3)CNC(=O)CC[C@@H](C(=O)N[C@@H](CCCNC(=N)N)C(N)=O)NC1=O)C(=O)N[C@@H](Cc1c[nH]c3ccccc13)C(=O)N[C@@H](CCC(N)=O)C(=O)N2 [Ref 37, [(3-Aminomethyl)benzoyl](1c)*SC(2a)WQC(2a)W[2-Nal]LE(1c)R-[NH2], reference compound] ([3Amb]SCWQCW[2Nal]LER-NH2; linker 3-6 via CH2COCH2; lactam N-10)	2	1				
B1			96	0.035	101	3.4 nM
B2			95		102	63 pM
[4‑Aminomethyl‑phenylacetyl][NMeS]EWQ[Dab][AEF][2Nal][αMeL]E[Dab][3Pal]-NHMe (lactam (positions not given here); lactam 3-6; not fully specified (bridges)) [Compound 18]			96			
[4‑Aminomethyl‑phenylacetyl]SEWQ[Dab][AEF][2Nal][αMeL]E[Dab]H[3Pal]-NH2 (lactam (positions not given here); lactam 3-6; not fully specified (bridges)) [Compound 12]			104		100	3.5 nM
B3			97	0.12	99	5.2 nM
B4			100		100	0.13 nM
B5			97		100	31 pM
B6			103		97	11 nM
B7			94		101	54 pM
